Measurements published in US20240402174A1 (Takeda / Millennium, published 2024).

T1: GII.4/New Orleans VLP (norovirus Hu/GII.4/New …, UniProt P54635 1-539)
T1 construct: also called Hu/GII.4/New Orleans1805/2009/USA
T1 chain: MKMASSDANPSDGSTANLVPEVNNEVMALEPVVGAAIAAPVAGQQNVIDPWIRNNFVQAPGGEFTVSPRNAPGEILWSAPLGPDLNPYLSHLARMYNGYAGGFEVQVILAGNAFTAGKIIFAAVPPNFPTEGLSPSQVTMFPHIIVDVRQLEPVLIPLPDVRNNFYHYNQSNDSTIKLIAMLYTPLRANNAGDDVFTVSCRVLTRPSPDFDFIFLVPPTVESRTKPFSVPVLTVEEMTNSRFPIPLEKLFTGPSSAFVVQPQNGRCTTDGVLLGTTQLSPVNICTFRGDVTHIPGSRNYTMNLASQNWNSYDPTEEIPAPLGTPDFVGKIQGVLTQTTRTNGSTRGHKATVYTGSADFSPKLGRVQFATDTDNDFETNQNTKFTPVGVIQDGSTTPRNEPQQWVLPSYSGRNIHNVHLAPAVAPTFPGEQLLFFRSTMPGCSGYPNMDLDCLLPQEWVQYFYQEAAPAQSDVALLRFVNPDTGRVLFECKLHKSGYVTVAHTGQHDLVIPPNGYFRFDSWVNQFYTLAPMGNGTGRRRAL

T2: GII.4/Den Haag VLP (norovirus Hu/GII.4/DenHaag89/2006/NL, UniProt P54635 1-539)
T2 construct: also called Hu/GII.4/DenHaag89/2006/NL
T2 chain: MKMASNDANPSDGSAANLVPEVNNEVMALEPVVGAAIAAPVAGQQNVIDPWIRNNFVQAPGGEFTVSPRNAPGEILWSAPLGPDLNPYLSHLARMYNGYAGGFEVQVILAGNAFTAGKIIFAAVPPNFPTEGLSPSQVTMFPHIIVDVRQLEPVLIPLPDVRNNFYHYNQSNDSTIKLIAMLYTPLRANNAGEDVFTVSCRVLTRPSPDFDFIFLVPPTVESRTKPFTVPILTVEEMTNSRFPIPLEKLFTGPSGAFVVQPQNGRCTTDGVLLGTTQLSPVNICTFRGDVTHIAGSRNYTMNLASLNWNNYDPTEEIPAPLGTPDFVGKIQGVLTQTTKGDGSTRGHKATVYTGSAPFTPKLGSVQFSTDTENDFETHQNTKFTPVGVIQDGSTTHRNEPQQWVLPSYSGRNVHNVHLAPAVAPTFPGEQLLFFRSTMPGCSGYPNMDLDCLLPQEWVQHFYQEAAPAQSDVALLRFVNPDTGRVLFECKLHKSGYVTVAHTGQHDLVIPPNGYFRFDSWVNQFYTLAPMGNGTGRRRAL

T3: GII.4/Consensus VLP (norovirus GII.4 consensus sequence, UniProt P54635 1-539)
T3 chain: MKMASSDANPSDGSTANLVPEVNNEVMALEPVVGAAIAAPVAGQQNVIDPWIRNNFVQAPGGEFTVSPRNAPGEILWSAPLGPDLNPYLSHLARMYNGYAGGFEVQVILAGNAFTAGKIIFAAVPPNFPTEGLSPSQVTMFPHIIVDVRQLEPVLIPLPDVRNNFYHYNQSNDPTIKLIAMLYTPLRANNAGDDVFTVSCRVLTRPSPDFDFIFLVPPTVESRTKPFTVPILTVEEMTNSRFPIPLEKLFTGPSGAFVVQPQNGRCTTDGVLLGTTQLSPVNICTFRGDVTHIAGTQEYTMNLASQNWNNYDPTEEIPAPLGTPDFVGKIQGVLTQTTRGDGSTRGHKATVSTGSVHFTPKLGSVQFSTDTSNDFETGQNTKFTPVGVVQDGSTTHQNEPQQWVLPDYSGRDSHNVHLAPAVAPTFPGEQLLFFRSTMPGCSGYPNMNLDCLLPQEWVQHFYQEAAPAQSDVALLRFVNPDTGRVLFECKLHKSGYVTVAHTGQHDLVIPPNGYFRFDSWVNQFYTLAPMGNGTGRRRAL

T4: GI.7 VLP (norovirus Hu/GI.7/Providence191/2010/USA)
T4 construct: also called GI.7 Providence
T4 chain: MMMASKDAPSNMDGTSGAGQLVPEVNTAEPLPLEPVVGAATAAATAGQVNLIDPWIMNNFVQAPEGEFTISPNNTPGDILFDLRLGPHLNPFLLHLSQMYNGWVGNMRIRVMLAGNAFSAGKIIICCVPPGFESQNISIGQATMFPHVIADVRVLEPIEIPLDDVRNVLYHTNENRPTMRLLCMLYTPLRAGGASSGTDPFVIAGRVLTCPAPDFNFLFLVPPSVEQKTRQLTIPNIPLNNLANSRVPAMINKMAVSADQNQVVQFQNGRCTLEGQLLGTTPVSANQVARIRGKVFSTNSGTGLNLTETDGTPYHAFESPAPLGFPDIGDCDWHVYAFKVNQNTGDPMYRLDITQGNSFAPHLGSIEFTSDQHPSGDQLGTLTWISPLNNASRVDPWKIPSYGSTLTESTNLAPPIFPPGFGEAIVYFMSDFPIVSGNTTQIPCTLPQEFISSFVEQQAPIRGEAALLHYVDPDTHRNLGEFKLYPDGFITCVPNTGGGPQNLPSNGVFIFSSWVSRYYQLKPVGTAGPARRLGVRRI

T5: GI.2 VLP (norovirus Hu/GI.2/Jingzhou/2013401/CHN, UniProt Q04542 1-546)
T5 construct: also called GI.2 Jingzhou
T5 chain: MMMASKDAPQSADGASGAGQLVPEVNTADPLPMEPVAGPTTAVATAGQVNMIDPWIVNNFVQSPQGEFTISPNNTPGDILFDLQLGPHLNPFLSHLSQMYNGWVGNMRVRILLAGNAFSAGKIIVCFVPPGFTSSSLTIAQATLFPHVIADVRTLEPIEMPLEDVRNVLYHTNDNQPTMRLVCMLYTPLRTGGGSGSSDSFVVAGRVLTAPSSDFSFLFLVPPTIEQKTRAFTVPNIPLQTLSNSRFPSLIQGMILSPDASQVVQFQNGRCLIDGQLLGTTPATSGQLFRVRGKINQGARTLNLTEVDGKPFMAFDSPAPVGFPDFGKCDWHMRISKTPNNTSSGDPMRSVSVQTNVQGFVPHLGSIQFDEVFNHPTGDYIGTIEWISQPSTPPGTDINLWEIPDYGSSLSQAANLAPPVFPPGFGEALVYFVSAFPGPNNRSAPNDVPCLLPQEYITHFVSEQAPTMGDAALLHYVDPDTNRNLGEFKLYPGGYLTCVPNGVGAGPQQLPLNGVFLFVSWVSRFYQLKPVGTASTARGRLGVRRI


Tests used:
GII.4/New Orleans VLP = molecular target: T1, GII.4/New Orleans VLP; test: multiplex microsphere immunoassay
GII.4/Den Haag VLP = molecular target: T2, GII.4/Den Haag VLP; test: PGM blockade assay, serially diluted mAb
Description: (§1) Plates were washed 3 times with PBST before use. […] The mixture was transferred to the PGM-coated plates including VLP-only controls and incubation carried out for 1 h at 22° C. or 37° C. Following 3 washes with PBST, detection antibody specific for the corresponding VLP was added and the plates were incubated at room temperature for 1 h and then washed 3 times with PBST. […] Following 3 washes, enzyme substrate (ABTS, KPL) was added and allowed to react for 12 min at room temperature. ABTS Peroxidase Stop Solution (KPL) was then added and plates were read at a wavelength of 450 nm in a Molecular Devices plate reader using SoftMax Pro Software (Molecular Devices, Downingtown, PA, USA) to obtain the Optical Density (GD) of each well.
(§2) The following, day corresponding dilutions incubated with VLPs were transferred to the PGM-coated plates. The OD data was curve fit and blocking titers were calculated as the supernatant dilution interpolated at 1/2 the maximum OD for the plate. The blocking titers represent the supernatant dilution that produces a 50% reduction in VLP binding to PGM. The maximum OD for the plate was calculated from the VLP only control.

GII.4/Consensus VLP = molecular target: T3, GII.4/Consensus VLP; test: PGM blockade assay, serially diluted mAb
Description: as §1, §2

GI.7 VLP = molecular target: T4, GI.7 VLP; test: multiplex microsphere immunoassay
GI.2 VLP = molecular target: T5, GI.2 VLP; test: multiplex microsphere immunoassay

| Binder | EC50 (GII.4/New Orleans VLP) [µg/mL] | blocking titer (GII.4/Den Haag VLP) | blocking titer (GII.4/Consensus VLP) | binding result (GI.7 VLP) | binding result (GI.2 VLP) |
| --- | --- | --- | --- | --- | --- |
| human mAb 1431 (antibody, V domains shown, also called A1431) VH: QVQLVQSGGGLVQPGGSLRLSCAASGFAFSNHGMHWVRQAPGKGLEWLSYISGSTGAIHYANSVKGRFTISRDNARNSLDLQMNSLGDEDTAVYYCARDGPRPDGTGYAGPSNDYWGQGTLVSVSS VL: EIVLTQSPASLSLSPGERATLSCKASRSISIYLAWYQQKPGQAPRLLIYDASYRAIGIPARFSGSGSGTDFTLTISNLEPEDFAVYYCQHRSSWPALTFGGGTKVEI [human mAb 1431, listing 1 of 2 here] | 0.018 | 5720 | 139000 | – | – |
| human mAb 1431 (antibody, V domains shown, also called A1431) VH: QVQLVQSGGGLVQPGGSLRLSCAASGFAFSNHGMHWVRQAPGKGLEWLSYISGSTGAIHYANSVKGRFTISRDNARNSLDLQMNSLGDEDTAVYYCARDGPRPDGTGYAGPSNDYWGQGTLVSVSS VL: EIVLTQSPASLSLSPGERATLSCKASRSISIYLAWYQQKPGQAPRLLIYDASYRAIGIPARFSGSGSGTDFTLTISNLEPEDFAVYYCQHRSSWPALTFGGGTKVEI [human mAb 1431, listing 2 of 2 here] | – | – | – | no binding | no binding |
| human mAb 1227 (antibody, V domains shown, also called A1227) VH: QVQLVQSGGGMVQPGGSLSLSCAASGFTLSNYAMTWVRQAPGKGLEWVSSIGGSGGTTYYADSVKGRFTISRDSSMNTLYLQMSNLRAGDTAVYYCAKDKTRTLRLGYSGMDVWGQGTTVTVSS VL: DIRLTQSPSSLSASVGDRVTITCRASQSISSYLNWYQQKPGKAPDLLIYGASSLQSGVPSRFSGSGSGTDFTLTISSLQPEDFGNYYCQQSFSTPRTFGQGTKVEL | 0.007 | 162 | 447 | – | – |
